Measurements as given in the DeepSol protein solubility set.

Assay: soluble on expression in E. coli; label from the status in PepcDB or PDB records

Soluble on expression in E. coli, not soluble:
MGSDKIHHHHHHMIVKEINPHFEDYVFNWEQTYQFLVGGYGSSKSYHTALKIVLKLLKEKRTALVIREVFDTHRDSTFALFQEVIEELGLTKAVASLSSPLQLRFHNGSRIMFKGMDNPAKLKSVHNISLIWIEECSEVKYEGFKELIGRLRHPELKLHMICTTNPVGTSNWTYRHFFRDERKKRFVLDDSELYEKRTIVKGDTYYHHSTANDNLFLPESYVKQLDGLKEYDPDLYRIARKGRFGVNGIRVLPQFEVLPHDQVKKCIAAISKPIFRTGMDFGFEESYNAVVRLAVDPEKKYLYIYWEYYQNKMTDDRTAEELREFIETQELIKADSAEPKSIQYFRQQGFRMVGARKFPGSRLQYTKKVKRFKKIFCSDRCENVIYELETLTYAKDKNGALIEDEFTIDPHTLSAIWYALDDYEVADMKETAHKRMRPNRERRRS, MGSDKIHHHHHHMIYIGLPQWSHPKWVRLGITSLEEYARHFNCVEGNTTLYALPKPEIVARWYEQTHDDFRFCFKFPATISHQAALRHCDELSSEFFARLAPLASRIGQYWLQLPATFGPRDLPALWHFLDGLPKDFTYGVEVRHPEFFAKEEAEQQLNRGLHERNVNRVILDSRPVHSAAATSPAMIDAQQKKPKVPVHAVMTARQPMVRFIGGDDMAHNRELFRVWLQTLAKWHQSGTPWLFLHTPDIAFAPALVDTLWGDLRAALPAAGNAPSIPQQSSLF, MGSDKIHHHHHHMKADFDVLIIGAGLSGIGMACHLAEACPDKRVGILERRSAIGGTWDLFRYPGIRSDSDMFSFGYKFRPWHELKVLADGPAIRRYIADTAREYGVDKSIRFGLKVLRASWSSEDRSWTVTVQQEDSHETHSLTCKFLISCTGYYNYDHGYRPDFTGLERFQGICVHPQHWPQDLDYHGKRVIVIGSGATAVTLVPSMAGKASHVTMLQRSPSYVFSVPAYDKISAVLQKMLPASWVFGLARWRNIRLQRFIYRAARRWPQRVRAWLLSHVEQQLGHGADLRHFSPEYNPWDQRLCAVPDGDLFKAIREGKASVVTDQIDTFTETGVRLKSGRRLDADIIVTATGLQLQSLGGMEVQVDGQPRHASSLMTYKSVLMQDVPNMAHLFGYTNAPWTLKVDLAASYICRLLDHMDRHEYEVVTPGAPAGEMLDETVMDSLQSGYVQRGRNVLPRQGRKLPWRVVHNFEADRDMLTRHPVSDPALAFVRAATTARTGKASELVATRMDGTAV, MGSDKIHHHHHHMKALALFSGGLDSMLAMKLITAQGIEVKALNINIGFGSTSDKSEIMKKRAAMVGADFEMIDVRNSYLQEVLFNPQYGYGKHFNPCIDCHAFMFKTALAMLKEENASFIITGEVLGQRPMSQRSDAMAKVKKLALDEEDLILRPMCAKNLPLTKPEREGWVDREKLEGIIGRSRKRQLELAAKFGLEDFESPGGGCLLTLDSFAKKIRDFIEFDKDMQVNDAQLLKYGRHLRLPNGAKMIIGRNELENTLLKGLKTPKYEAIEIGDLIGAYSLVDEKISEKDLELALKIALTYTKHEVGKSYELKFKNQAYTSIAFENKADINQFFIS, MGSDKIHHHHHHMKALIEVHNLWKEYNGKEKVTALKGINLRINTGEFVVILGPSGSGKTTLLNCLSGVDRPTRGTVIIHGTDLYTLSEEERTRFRAENMGFVFQFFNLVPVLTAIENVELPLLILGVNRKEARERAFEILRKVGLAHKCDRFPEELSGGEKQRVAIARAIVHNPKVIWADEPTGALDNETGRMIIDLLMEMKENSTLVVVTHDERIAEKADRVIRIRDGQIEQDICEKAL, MGSDKIHHHHHHMKDILVHIDDSERCSARLDIAIGLAKTFGARLTGLFARTESHRPSAVAHKASDQLTQARDAAKEAFTKACASAGITSRWWQLAHGEPGHVVSETMFCARYADLVVMGQTEPKSKIVPEEMVEHVILHCGRPVLVVPHTGSFPSVGERMALAWNAGKEAVRALNDAKPLMLKAKSVTVLSLRGPADDGSNAMGEVPQVDVLDHLAACGITASAERLAGEHIGKMDMLLSRLCDLGADLVVMGAHGHYGLSLKRGTGTRYVLAHMTVPVLMSN, MGSDKIHHHHHHMKFDYEKEPSRDILCIDCKSFYASVECAERGLDPLKTMLVVMSNAENAGGLVLSASPMAKKVLGVSNVTRKNQVPAHPDLYVVPPRMNLYMKKNQEINNLYKKFVADEDHSVFSVDESFLDVTASLSYFHCETAYKMARIIQRVVYNHVGIYVTVGIGDNPLLAKLALDNGAKHSPDFIAEWRYDRVPDTVWQLPSLTDFCGIGRRMAKRLNRLGIDSVYELAQANPHLLQETFGMMGLQLYAHSWGIDRTFLGKKAPHKAEKSFGNSQILPRDYARRDQIELVLKELTEQVAARLRKAHCQTECITVYVGYSKGQIDREGRTGWRKQQTIPATNNTKVLITYVLALFREHYLAGTDVRQLGLSYGKLVWNESLQLDLFSEPEEQISEMELNYLIDKIRQKFGFQALIHTSSLLEGATAIHRSGLVGGHAGGNVGLGG, MGSDKIHHHHHHMKFFNREKEIEEILHIIESEPQRINFIFGSINSGKTALINEIINNRLNKDKYVVFYFDLREIFISKYDDFIEVLFEEYEEPFIDKVKRLFLSLIKDYPDVIKSYALLNITGVVDSIPIPKNTLNELLKKRNVKNVFRYITSVLIKIKREGKQPIIIIDELQKIGDLKLNGFLIYELFNYFVSLTKHKHLCHVFCLSSDSLFIERVYNEAMLEGRCKYILVDDFDRETALKFMDFLAKENNINLTNEDKELIYNYVGGKPIDIIYVINEMKYKKLEDILTSMLKEETQKLKYFLENVKEEDEELYKKVVDALKIFKDSYEIEDIKIPKKLREFLVKKNILFLNPIEGTLKPQSFLVWNAIKRIL, MGSDKIHHHHHHMKFPRIGLPKEKVIELINEKTKKDLTFSSGKILGSMCTMPHDLAIEVYTKYIDRNLGDPGLHPGTRKIEEEVIEMISDLLHLEKGHGHIVSGGTEANILAVRAFRNLSDVEKPELILPKSAHFSFIKAGEMLGVKLVWAELNPDYTVDVRDVEAKISDNTIGIVGIAGTTGLGVVDDIPALSDLARDYGIPLHVDAAFGGFVIPFAKELGYELPDFDFKLKGVQSITIDPHKMGMAPIPAGGIVFRRKKYLKAISVLAPYLAGGKVWQATITGTRPGASVIAVWALIKHLGFEGYMRIVERAMKLSRWFAEEIKKINNAWLVREPMLNIVSFQTKNLKKVERELKSRGWGISAHRGYIRIVFMPHVTREMIEEFLKDLKEVLS, MGSDKIHHHHHHMKGAVTTDVEAGGLRGRMYASRATSDVRPRADAPTFVLIHGIGVSHRYLVRLHHVLAGVADTISIDLPGFGSTPRPDRQLMVADQAAFIHDVLDQAGVGLRVLVGHSMGAQFVLEAALQRPEQVPHVVLMGPVVDVRRRTLPRQILALTKDALLHETPGSNALVFSDYLRCGPLWYLKELRVMMNYRTEERIRGLTTPVMILRGASDPIATGEWCRILARRAPAGTLVEVPGCGHVVQHTGTAQVADAITGFTGLPGSGAPEQTVNRQ, MGSDKIHHHHHHMKGVTLRGLEVFEALSRTGSVAQASTLTGLSQPAVSQQLRNLEQALGTDLVDHGRRPMVLTPAGRAFLPRAETVLSQLRLAQSELTVMDLTHLSTLSMGLIDDFDNDLTPRLATLLADSLTKCRFKLITAPSHEISEAMKARRLHIAVAATSGEVHDGIIEYPLVRDPFILVAPRGVVSKGGDMLASLQGLPLLRYAREQLIGRQIEAHLARQKLDFEERFEIGSHLALMAMVARRLGWAVTTPLGFMRAERFHDEVEAFALPFAAFSRRISLFAGADWADRVPRDVAETMRRLVQSQIIDPAVARLPWLGGELRVIES, MGSDKIHHHHHHMKIAFVSTRGIPNNYGGFEQFAEYISVGMAQRGHEVVVYSPKFHPYQESTYKGVRIKHIYSPETWMGSSVGSFFYDFASLRDALKKEDFDIIYEAGYTSIIPAYIWFNVKKRKRPIFTTNMDGLENKRSKFSPMVRRFLDWEEKMAVKYSHYLIADNMGIHDYYKEKYGKESKFLAYGADIHDDFKAEYLEEFGLKSEEYYILIARLEPENNIVMAIEGYLHSKENGRRPLIVVGKTNTPHGKELVEKYGNERNVEFVGGIYDFKKLDSVRHFSKAYFHGHSVGGTNPSLLEAMAAGCFIFAHDNIFNRAVLKENAFYYPSADKVTEYLNRIDTIAEGSKIQYTARNIEVIRNEYSWESLIDKHEKYFYWLLSQKQ, MGSDKIHHHHHHMKIAIVGSGNGAVTAAVDMVDKGHDVRLYCRNESISKFDVALEKGGFDFYNEGEEKFIEFTDISDDMEYVLDGADIVQVIIPSSFIEYYAKVMSKFVTNDHLIFFNIAASMGSIRFMNVLEDRHIDVHPHFAEANTLTYGTRVDFNNAKVDLSLNVRRVFFSTFDRSELNESYEKVSKIYDYLVKEESLLKTNLENGNPEVHPGPTLLNVGRIDYSEEFSLYKEGITKHTVRLLHAIEIERLNLGRKLGFELSTAKESRIQRGYLERKDEDEPLNRLFNTSPVFSQIPGPNHVENRYLTEDIAYGLVLWSSLGRVIDVPTPNIDAVIMIASTILERDFFEEGLTIEELGLDKLGLE, MGSDKIHHHHHHMKIGIITICKVNNYGAELQAFATQKKLEQMGHNAEIINYLYYKDWHFKDTPLSQPFVPLDMKGKLSYWIKYRLMSWVVNKVLPIFNGNMRRRLHNYQSFIDSERFSAQYKSMDELYKTYPKYDIYMVGSDQVWNPSASSSIEPYFLTFAPKNAPKVTYASSFGVASIAPNLSKRYAKLLNNLDTIAVREQSGVELVKQLTGREAKLVVDPTLLLSKADWEPYMKPLAKISTQYILIYQLFPSQTVIDVALKIGKEKNLPVYNICKRAYGMKKIVGINNILDAGPSEFLWLIANATCMVTNSFHGTAFSVNFATPFCCVLNRKRKNNGRMISFLDKVDMSNRILYEDSIAELNVMTACSEVTNNHLRLLVNNSIDYLKSIIENKEQKC, MGSDKIHHHHHHMKIGILTFANVPNFGANLQALSTISYLQNHGYNPILIKWEPEDFEARFTSIKTQKQPQEHFHFVEKYLPQTKICRNDDDICQVIKDEKIEGIIIGSDAVLQCSSFWGRLDFPTKTVVRVNKTTSEREYPNAFWGTFYDKLGSKIPMVIMSASSQNAKYRLIARSVKHKMSNNLSHFEYISVRDIWTRDMITYITKGAIIPNITPDPVFAFNYNCAKFIPSKEDILLKYHLPENYVLVSMKCRMLDNMLWMDKLKSEMKKLYLECVALPMPTGIEFKHNFDFSITTPLPPLDWYALIKYAKGYIGENMHPIVVALHNAVPCFCFDTYGVLKYARCVCVEESSKIYDIMSRFSLLDNRINAYSRFWKCPPVDIVINRILHFDVIACQKTALNYYNNYEQMMSSILEVFKSK, MGSDKIHHHHHHMKIKHIFTDMDGTLLDSHGSVSDTNHWSIYYSDLPITLVSARSPLEMSNIVEKLQLRTPQIAFNGNLTFTQNQFGLQIIDKNPLASETVSQLLNYISTEFPNVSLNWYSLAHWYINKQDKGTFIQKAITGIEPKIKTFDGQSEIYKIMMIVFDSQELLQLQAQLNNLNIPNISVQQSGQWYLEITSDNKTKADAVQSILDNKNLDFQEIAAIGDGHNDIPLLQSAGLAIAVDNANSEVKKHVKMVVAKNTEHGVAEAISAINTINEQVI, MGSDKIHHHHHHMKILHLGKFYPLKGGMEKAILDIVRGISMQGVTCDLLCVSTEKAGVFPLNEHAHIYAMPSVCNVNSVRISPLLIPTLRKLCPNYDIIHIHCPNPMANLALYLSGYRGKVVLHWHSDILKQKYALKLYKPLQTWLIRRADVIIGTSPVYLENSPFLRGMEHKFRIVPLGCEAIVPSADRVSDIRKQYKGKRIIFALGRLIAYKGFRFLIEAARYLDDGYVVLIGGTGPLYNKLLKQINEENLQGKVCLLGYVTDDEVAQYYGACDVFCLSSVWKTEAFGLVQIEAMSCGKPVVATNIEGSGVPWVNRNGYSGLNVEPENPEALAKAIMKITSSEEAYRTYSRQARAHYNKMFVKERMLAGYEQVYASLYHEK
